Molecular target: the molecule itself
Assay: not stated; oligomeric state of the isolated Ank domains in solution (Supplementary Fig. 1a, b); method not given

B1: Ank domain of human SKD3 isoform-1 (ANK_(iso1), residues 132-351) (domain or fragment, UniProt Q9H078 132-351, looked up)
chain: SNKDAALLEAARANNMQEVSRLLSEGADVNAKHRLGWTALMVAAINRNNSVVQVLLAAGADPNLGDDFSSVYKTAKEQGIHSLEDGGQDGASRHITNQWTSALEFRRWLGLPAGVLITREDDFNNRLNNRASFKGCTALHYAVLADDYRTVKELLDGGANPLQRNEMGHTPLDYAREGEVMKLLRTSEAKYQEKQRKREAEERRRFPLEQRLKEHIIGQE
notes: human SKD3 (CLPB) isoform-1, Ank domain construct, residues 132-351; TEV-cleavable tag; also called isolated Ank domain of SKD3; source: E. coli BL21-CodonPlus (DE3)-RIL, purified (IMAC, anion exchange, SEC); not shown: His6-SUMO, N-terminal, cleaved
Q: For B1, which “stoichiometry N” value is on record?
A: 2
